Laboratory results as given in article PMC8892091.
Like-named read-outs stand apart in the source and are kept apart here.

How the values were obtained:
[1] = target: T1, MBP-ALKBH6 WT (Homo sapiens, UniProt Q3KRA9 1-238); assay: EMSA
[2] = target: T2, ALKBH6 WT (Homo sapiens, UniProt Q3KRA9 1-238); assay: MST
[3] = target: ALKBH6ΔFlip3 (Homo sapiens, UniProt Q3KRA9 1-238, del139-158); assay: MST
[4] = target: T2, ALKBH6 WT; assay: MST; remark: listed apart in the source
[5] = target: T1, MBP-ALKBH6 WT; assay: competition
[6] = target: MBP-ALKBH6ΔFlip3 (Homo sapiens, UniProt Q3KRA9 1-238, del139-158); assay: EMSA
[7] = target: T2, ALKBH6 WT; assay: MST; remark: listed apart in the source
[8] = target: MBP-ALKBH6 R225A/R228A (Homo sapiens, UniProt Q3KRA9 1-238, R225A;R228A); assay: EMSA

Binder | binding result [1] | binding result [7] | further results
AAAAAAAAAAAAAAAAAAAAAAAAAAAAAA (ssRNA) [poly(A) 30 nt] | binds | – | binding result [2]: binds
GATCCAGTGATCCAGT (ssDNA) [ssDNA3 (FAM)] | – | – | binding result [3]: binds; binding result [4]: binds
GGATCAACAGTGCACAGTT (ssDNA) [ssDNA1 (unlabelled)] | – | – | binding result [5]: binds
dsDNA1 (dsDNA) DNA 1: AACTTCGTGCAGGCATGGGATCTTGTCTACT DNA 2: AGTAGACAAGATCCCATGCCTGCACGAAGTT | no binding | – | binding result [6]: binds
Bubble DNA1 (dsDNA) DNA 1: AACTTCGTGCAGGCATGGGATCTTGTCTACT DNA 2: AGTAGACAAGCGACCATGCCTGCACGAAGTT | – | binds | –
Bulge DNA2 (dsDNA) DNA 1: AACTTCGTGCAGGCATGGGATCTTGTCTACT DNA 2: AGTAGACAACATGCCTGCACGAAGTT | – | binds | –
Bulge DNA1 (dsDNA) DNA 1: AACTTCGTGCAGGCATGGGATCTTGTCTACT DNA 2: AGTAGA DNA 3: CATGCCTGCACGAAGTT | – | binds | –
GGATCAACAGTGCACAGTT (ssDNA) [ssDNA1 (FAM)] | binds | – | binding result [8]: binds
